Test results taken from patent US20240010720A1 (IOMX THERAPEUTICS, published 2024).
Like-named read-outs stand apart in the source and are kept apart here.

T1: recombinant human IGSF11 (VSIG3) extracellular domain (ECD) (human, UniProt Q5DX21 23-241, biotinylated where captured on streptavidin)
T1 construct: also called biotinylated recombinant ECD-IGSF11; IGSF11 (ECD domain)
T1 sequence: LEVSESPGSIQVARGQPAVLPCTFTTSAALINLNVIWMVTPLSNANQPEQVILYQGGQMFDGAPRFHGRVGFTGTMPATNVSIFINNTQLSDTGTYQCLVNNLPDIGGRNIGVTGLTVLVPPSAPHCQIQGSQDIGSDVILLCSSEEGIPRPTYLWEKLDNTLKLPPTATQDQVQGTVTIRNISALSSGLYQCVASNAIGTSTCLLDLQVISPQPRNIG

T2: IGSF11 ECD fused to murine-Fc (human; mouse, UniProt Q5DX21 23-241)
T2 construct: also called Fc-fusion IGSF11 ECD; full-length ECD of IGSF11; not shown: murine Fc
T2 sequence: T1 sequence

T3: human IGSF11 (VSIG3) on cells (human, UniProt Q5DX21 23-431)
T3 sequence: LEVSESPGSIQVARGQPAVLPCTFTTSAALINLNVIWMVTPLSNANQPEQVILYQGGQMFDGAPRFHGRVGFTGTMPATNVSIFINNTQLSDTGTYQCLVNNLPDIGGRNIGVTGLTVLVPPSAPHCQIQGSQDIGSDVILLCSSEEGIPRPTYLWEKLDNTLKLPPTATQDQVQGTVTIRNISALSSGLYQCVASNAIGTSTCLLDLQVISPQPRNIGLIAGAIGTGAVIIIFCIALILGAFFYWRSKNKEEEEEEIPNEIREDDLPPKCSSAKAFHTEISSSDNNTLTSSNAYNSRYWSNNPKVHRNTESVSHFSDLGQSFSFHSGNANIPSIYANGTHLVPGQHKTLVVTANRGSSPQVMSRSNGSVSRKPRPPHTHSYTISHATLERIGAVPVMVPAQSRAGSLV

T4: His-tagged extracellular domain (ECD) of human IGSF11 (VSIG3) (human, UniProt Q5DX21 23-241)
T4 construct: partly bought (SinoBiological 13094-H08H); also called IGSF11-HIS; HIS-IGSF11; not shown: HIS6 tag
T4 sequence: T1 sequence

T5: IgC2 domain of human IGSF11 fused to murine IgG2a Fc-region (human; mouse, UniProt Q5DX21 137-241)
T5 construct: also called IgC2-like domain mFc fusion; not shown: murine IgG2a Fc-region
T5 sequence: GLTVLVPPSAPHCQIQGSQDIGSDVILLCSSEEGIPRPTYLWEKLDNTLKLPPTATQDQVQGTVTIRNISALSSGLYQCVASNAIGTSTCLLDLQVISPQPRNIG

T6: IgV domain of human IGSF11 fused to murine IgG2a Fc-region (human; mouse, UniProt Q5DX21 23-143)
T6 construct: also called IgV-like domain mFc fusion; not shown: murine IgG2a Fc-region
T6 sequence: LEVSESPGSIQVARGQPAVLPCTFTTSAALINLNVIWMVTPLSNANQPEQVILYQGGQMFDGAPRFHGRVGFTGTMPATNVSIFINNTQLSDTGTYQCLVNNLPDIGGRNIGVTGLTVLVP

B1: A-006 (IgG1 format) (antibody, V domains shown)
VH: EVQLVESGGGLIQPGGSLRLSCAASGFTVSSNYMSWVRQAPGKGLEWVSVIYSGGSTYYADSVKGRFTISRDNSKNTLYLQMNSLRAEDTAVYYCARGNPYYYGDLQVNFDYWGQGTLVTVSS
VL: QAVVTQEPSLTVSPGGTVTLTCASSTGAVTSGYYPNWFQQKPGQAPRPLIYSTSNKHSWTPARFSGSLLGGKAALTLSGVQPDDEAEYYCLLYYGGDWVFGGGTKLTVL
notes: human IgG1 format; also called A-006-like ABP
B2: A-026 (IgG1 format) (antibody, V domains shown)
VH: QVQLQESGPGLVKPSQTLSLTCTVSGGSISSGGYYWSWIRQHPGKGLEWIGYIYYSGSTYYNPSLKSRVTISVDTSKNQFSLKLSSVTAADTAVYYCASWSLGTSNHGWFDPWGQGTLVTVSS
VL: QSVLTQPPSASGTPGQRVTISCSGSSSNIGSNTVNWYQQLPGTAPKLLISDNNNRPSGVPDRFSGSKSGTSASLAITGLQAEDEADYYCQSYDSNLSGWVFGGGTKLTVL
notes: human IgG1 format
B3: A-024 (IgG1 format) (antibody, V domains shown)
VH: QMQLVQSGAEVKKPGSSVKVSCKASGGTFSSYAISWVRQAPGQGLEWMGWISAYNGNTNYAQKLQGRVTMTTDTSTSTAYMELRSLRSDDTAVYYCASLGSYGYTGAFDIWGQGTMATVSS
VL: QSALTQPASVSGSPGQSITISCTGTSSDVGGYNYVSWYQQHPGKAPKLMIYEVSNRPSGVSNRFSGSKSGNTASLTISGLQAEDEADYYCSSYTSSSTLVVFGGGTKLTVL
notes: also called A-024-like ABP
B4: C-025 (IgG1 format) (antibody, V domains shown)
VH: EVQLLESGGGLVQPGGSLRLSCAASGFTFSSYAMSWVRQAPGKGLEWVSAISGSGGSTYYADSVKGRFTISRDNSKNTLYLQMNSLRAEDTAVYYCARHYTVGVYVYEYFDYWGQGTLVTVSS
VL: SYELTQPPSVSVSPGQTASITCSGDKLGDKYASWYQQKPGQSPVLVIYQDSKRPSGIPERFSGSNSGNTATLTISGTQAEDEADYYCQSYATAGFVFGGGTKLTVL
notes: wildtype human IgG1 and kappa or lambda constant regions

Assays:
[1] = target: T1, recombinant human IGSF11 (VSIG3) …; experiment: BLI, IgG1
[2] = target: T1, recombinant human IGSF11 (VSIG3) …; experiment: SPR, IgG1
[3] = target: T2, IGSF11 ECD fused to murine-Fc; experiment: ELISA, IgG
Source text: (§1) Expi293 cells (ThermoFisher) were transiently transfected with DNA sequences encoding the applicable IGSF11 domain-mFc fusions according to the manufacturer's instructions, and cultured under conditions suitable to the IGSF11 domain fusion. Cell supernatants were harvested 5 days post transfection and the expressed Fc-protein purified via Protein A affinity chromatography (GE Healthcare). IGSF11 domain Fc-fusion proteins were re-buffered into PBS pH7.4. […] The surface was blocked with 2% (w/v) skim milk powder in PBST. After three wash cycles with PBST, a dilution series of IgG-format ABPs was transferred to the immobilized the Fc-fusion IGSF11 ECD or the IGSF11 domains and incubated for 1 h. After removing all unbound antibodies by 3 wash cycles with PBST, bound IgG ABPs were detected with a goat anti-human IgG antibody conjugated with horseradish peroxidase. After three wash cycles with PBST the ELISA was developed with TMB substrate.

[4] = target: T3, human IGSF11 (VSIG3) on cells; experiment: FACS, DMS 273 cells
[5] = target: T4, His-tagged extracellular domain (ECD) …; experiment: ELISA EC50 grade, IgG1
[6] = target: T3, human IGSF11 (VSIG3) on cells; experiment: FACS, HEK cells expressing IGSF11
[7] = target: T1, recombinant human IGSF11 (VSIG3) …; experiment: BLI, apparent affinity, IgG captured, IGSF11 ECD 100 nM
Source text: Briefly, various APBs were loaded on an optical biosensor via a commercially available Capture System (AHC sensors, ForteBio).

[8] = target: T3, human IGSF11 (VSIG3) on cells; experiment: FACS, IgG1-format antibodies; DMS 273 cells (D) treated with IGSF11 siRNA (KD)
[9] = target: T3, human IGSF11 (VSIG3) on cells; experiment: FACS, IgG1-format antibodies; M579-A2-luc cells (M) treated with IGSF11 siRNA (KD)
[10] = target: T3, human IGSF11 (VSIG3) on cells; experiment: FACS, IgG1-format antibodies; DMS 273 cells (D) treated with scrambled control siRNA (SC)
[11] = target: T3, human IGSF11 (VSIG3) on cells; experiment: FACS, IgG1-format antibodies; M579-A2-luc cells (M) treated with scrambled control siRNA (SC)
[12] = target: T2, IGSF11 ECD fused to murine-Fc; experiment: ELISA: IgG titrated on coated murine-Fc fusion of IGSF11 ECD; x axis IgG nM, y axis absorption per legend
Source text: as §1

[13] = target: T4, His-tagged extracellular domain (ECD) …; experiment: ELISA: IgG1-format antibody titrated on coated His-tagged IGSF11; x axis nM IgG, y axis absorbance per legend
[14] = target: T3, human IGSF11 (VSIG3) on cells; experiment: FACS, IgG1-format antibodies; CL-11 cells (C), a line that does not express IGSF11 (specificity control), IGSF11 siRNA (KD)
[15] = target: T3, human IGSF11 (VSIG3) on cells; experiment: FACS, IgG1-format antibodies; CL-11 cells (C), a line that does not express IGSF11 (specificity control), scrambled control siRNA (SC)
[16] = target: T4, His-tagged extracellular domain (ECD) …; experiment: blocking ELISA: IgG pre-incubated with His-tagged IGSF11 ECD, complexes added to immobilised VSIR-Fc; y axis % remaining IGSF11 binding, x axis IgG nM per legend
Procedure: All binding steps were for 1 hour at room temperature, and all washing steps were three times washing with PBS/Tween (0.05%).

[17] = target: T4, His-tagged extracellular domain (ECD) …; experiment: blocking ELISA: antibody pre-incubated with His-tagged IGSF11 ECD, complexes added to immobilised VSIR-Fc; y axis % remaining IGSF11 binding to VSIR, x axis nM IgG per legend
[18] = target: T5, IgC2 domain of human IGSF11 fused to …; experiment: ELISA, IgG
Source text: as §1

[19] = target: T2, IGSF11 ECD fused to murine-Fc; experiment: ELISA: IgG titrated on coated murine-Fc fusion of IGSF11 ECD; x axis IgG nM, y axis absorption per legend; remark: listed apart in the source
Source text: as §1

[20] = target: T2, IGSF11 ECD fused to murine-Fc; experiment: ELISA, IgG; remark: listed apart in the source
Source text: as §1

[21] = target: T6, IgV domain of human IGSF11 fused to …; experiment: ELISA, IgG
Source text: as §1

Row | Binder | Kd [1] [nM] | Kd [2] [nM] | EC50 [3] [nM] | EC50 [4] [nM] | EC50 [5] [nM] | EC50 [6] [nM] | percentage binding (FACS heat-map) [8] [%] | percentage binding (FACS heat-map) [9] [%] | percentage binding (FACS heat-map) [10] [%] | percentage binding (FACS heat-map) [11] [%] | percentage binding (FACS heat-map) [14] [%] | percentage binding (FACS heat-map) [15] [%] | also measured
1 | B1 | 1 to 10 | 250 to 500 | < 1 | > 50 | < 0.02 | 10 to 50 | 5.72 | 2.59 | 81.1 | 75.3 | 3.04 | 2.31 | Kd [7]: < 15 nM; EC50 (read off the curve) [12]: ~0.5 nM; EC50 (read off the curve) [13]: ~0.01 nM; IC50 (read off the curve) [16]: ~4 nM; IC50 (read off the curve) [17]: ~4 nM
2 | B2 | 20 to 30 | > 500 | 1 to 20 |  | 0.02 to 0.05 | > 50 | 3.81 | 2.01 | 64.4 | 11.6 | 3.47 | 3.6 | EC50 [18]: 1 to 20 nM
3 | B3 |  | > 500 | < 1 | < 10 | 0.02 to 0.05 |  |  |  |  |  |  |  | EC50 (read off the curve) [19]: ~0.4 nM
4 | B4 |  |  |  |  |  |  |  |  |  |  |  |  | EC50 [20]: 1 to 20 nM; EC50 [21]: < 1 nM
